# Source: IntAct's records for PubMed 25910212
# B1: Inactive peptidyl-prolyl cis-trans isomerase FKBP6 (Homo sapiens), O75344 (parent)
# chain: MGGSALNQGVLEGDDAPGQSLYERLSQRMLDISGDRGVLKDVIREGAGDLVAPDASVLVKYSGYLEHMDRPFDSNYFRKTPRLMKLGEDITLWGMELGLLSMRRGELARFLFKPNYAYGTLGCPPLIPPNTTVLFEIELLDFLDCAESDKFCALSAEQQDQFPLQKVLKVAATEREFGNYLFRQNRFYDAKVRYKRALLLLRRRSAPPEEQHLVEAAKLPVLLNLSFTYLKLDRPTIALCYGEQALIIDQKNAKALFRCGQACLLLTEYQKARDFLVRAQKEQPFNHDINNELKKLASCYRDYVDKEKEMWHRMFAPCGDGSTAGES
# partner: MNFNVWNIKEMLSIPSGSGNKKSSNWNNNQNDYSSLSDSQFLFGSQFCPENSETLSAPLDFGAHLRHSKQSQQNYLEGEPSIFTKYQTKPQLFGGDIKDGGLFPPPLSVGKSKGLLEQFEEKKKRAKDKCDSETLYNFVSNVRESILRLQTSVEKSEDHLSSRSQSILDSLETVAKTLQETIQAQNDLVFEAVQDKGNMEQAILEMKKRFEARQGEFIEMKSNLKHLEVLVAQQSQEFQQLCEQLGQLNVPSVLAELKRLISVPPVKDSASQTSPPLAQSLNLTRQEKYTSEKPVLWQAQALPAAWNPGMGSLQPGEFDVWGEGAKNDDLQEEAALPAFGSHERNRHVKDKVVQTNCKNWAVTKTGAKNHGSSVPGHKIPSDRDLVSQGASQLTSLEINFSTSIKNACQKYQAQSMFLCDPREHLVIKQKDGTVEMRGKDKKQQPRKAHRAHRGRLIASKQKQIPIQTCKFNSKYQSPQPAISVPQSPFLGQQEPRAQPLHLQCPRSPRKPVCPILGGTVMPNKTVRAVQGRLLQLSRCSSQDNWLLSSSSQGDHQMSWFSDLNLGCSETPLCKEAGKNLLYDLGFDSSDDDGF
# B2: EF-hand domain-containing protein 1 (Homo sapiens), Q5JVL4 (parent)
# chain: MVSNPVHGLPFLPGTSFKDSTKTAFHRSQTLSYRNGYAIVRRPTVGIGGDRLQFNQLSQAELDELASKAPVLTYGQPKQAPPADFIPAHVAFDKKVLKFDAYFQEDVPMSTEEQYRIRQVNIYYYLEDDSMSVIEPVVENSGILQGKLIKRQRLAKNDRGDHYHWKDLNRGINITIYGKTFRVVDCDQFTQVFLESQGIELNPPEKMALDPYTELRKQPLRKYVTPSDFDQLKQFLTFDKQVLRFYAIWDDTDSMYGECRTYIIHYYLMDDTVEIREVHERNDGRDPFPLLMNRQRVPKVLVENAKNFPQCVLEISDQEVLEWYTAKDFIVGKSLTILGRTFFIYDCDPFTRRYYKEKFGITDLPRIDVSKREPPPVKQELPPYNGFGLVEDSAQNCFALIPKAPKKDVIKMLVNDNKVLRYLAVLESPIPEDKDRRFVFSYFLATDMISIFEPPVRNSGIIGGKYLGRTKVVKPYSTVDNPVYYGPSDFFIGAVIEVFGHRFIILDTDEYVLKYMESNAAQYSPEALASIQNHVRKREAPAPEAESKQTEKDPGVQELEALIDTIQKQLKDHSCKDNIREAFQIYDKEASGYVDRDMFFKICESLNVPVDDSLVKELIRMCSHGEGKINYYNFVRAFSN
# partner: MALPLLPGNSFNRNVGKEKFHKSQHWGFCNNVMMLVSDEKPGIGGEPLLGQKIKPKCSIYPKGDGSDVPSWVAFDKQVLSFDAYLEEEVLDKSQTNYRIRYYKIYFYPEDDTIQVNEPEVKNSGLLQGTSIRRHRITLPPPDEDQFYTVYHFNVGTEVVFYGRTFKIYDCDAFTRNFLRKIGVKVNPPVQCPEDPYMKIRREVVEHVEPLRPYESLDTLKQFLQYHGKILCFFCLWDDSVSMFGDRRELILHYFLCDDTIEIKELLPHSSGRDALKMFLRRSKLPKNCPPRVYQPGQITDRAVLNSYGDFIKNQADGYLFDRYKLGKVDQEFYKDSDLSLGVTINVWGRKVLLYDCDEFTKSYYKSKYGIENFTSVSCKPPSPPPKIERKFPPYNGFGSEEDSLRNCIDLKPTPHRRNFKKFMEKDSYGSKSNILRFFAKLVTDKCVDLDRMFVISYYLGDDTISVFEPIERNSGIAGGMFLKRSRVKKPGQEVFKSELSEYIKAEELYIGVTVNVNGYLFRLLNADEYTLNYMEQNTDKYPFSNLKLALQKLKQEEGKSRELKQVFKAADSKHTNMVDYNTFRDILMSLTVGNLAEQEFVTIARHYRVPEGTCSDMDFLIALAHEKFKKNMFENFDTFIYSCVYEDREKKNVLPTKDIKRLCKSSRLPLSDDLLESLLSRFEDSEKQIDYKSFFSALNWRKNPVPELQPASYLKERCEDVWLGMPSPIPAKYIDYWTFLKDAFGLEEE
# B3: Meiotic recombination protein DMC1/LIM15 homolog (Homo sapiens), Q14565 (parent)
# chain: MKEDQVVAEEPGFQDEEESLFQDIDLLQKHGINVADIKKLKSVGICTIKGIQMTTRRALCNVKGLSEAKVDKIKEAANKLIEPGFLTAFEYSEKRKMVFHITTGSQEFDKLLGGGIESMAITEAFGEFRTGKTQLSHTLCVTAQLPGAGGYPGGKIIFIDTENTFRPDRLRDIADRFNVDHDAVLDNVLYARAYTSEHQMELLDYVAAKFHEEAGIFKLLIIDSIMALFRVDFSGRGELAERQQKLAQMLSRLQKISEEYNVAVFVTNQMTADPGATMTFQADPKKPIGGHILAHASTTRISLRKGRGELRIAKIYDSPEMPENEATFAITAGGIGDAKE
# partner: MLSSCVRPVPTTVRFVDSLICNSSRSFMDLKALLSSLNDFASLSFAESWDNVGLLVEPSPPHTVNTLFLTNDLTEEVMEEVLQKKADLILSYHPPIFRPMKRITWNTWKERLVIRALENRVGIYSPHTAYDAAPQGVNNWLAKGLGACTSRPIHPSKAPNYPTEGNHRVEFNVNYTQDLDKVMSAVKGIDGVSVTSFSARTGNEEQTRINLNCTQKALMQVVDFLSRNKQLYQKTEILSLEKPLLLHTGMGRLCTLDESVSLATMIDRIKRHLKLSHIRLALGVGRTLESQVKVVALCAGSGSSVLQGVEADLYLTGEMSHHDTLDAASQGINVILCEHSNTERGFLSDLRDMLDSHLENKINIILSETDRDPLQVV
# B4: Emerin (Homo sapiens), P50402 (parent)
# chain: MDNYADLSDTELTTLLRRYNIPHGPVVGSTRRLYEKKIFEYETQRRRLSPPSSSAASSYSFSDLNSTRGDADMYDLPKKEDALLYQSKGYNDDYYEESYFTTRTYGEPESAGPSRAVRQSVTSFPDADAFHHQVHDDDLLSSSEEECKDRERPMYGRDSAYQSITHYRPVSASRSSLDLSYYPTSSSTSFMSSSSSSSSWLTRRAIRPENRAPGAGLGQDRQVPLWGQLLLFLVFVIVLFFIYHFMQAEEGNPF
# Variants of: B1
# Details: with iho1_human IHO1, Q8IYA8
row,effect of a mutation on the interaction,Variant
1,with no effect,R202H
2,with no effect,F72L

# Variants of: B2
# Details: with efhc2_human EFHC2, Q5JST6
row,effect of a mutation on the interaction,Variant
1,disrupting interaction strength,A394S
2,with no effect,R159W
3,disrupting interaction strength,P77T
4,with no effect,T508R
5,with no effect,M448T
6,disrupting interaction strength,R221H

# Variants of: B3
# Details: with nif3l_human NIF3L1, Q9GZT8
row,effect of a mutation on the interaction,Variant
1,disrupting interaction strength,M200V

# Variants of: B4
# Details: with vapb_human VAPB
row,effect of a mutation on the interaction,Variant
1,with no effect,S54F
2,with no effect,D72V
3,with no effect,P183H

# Variants of: B4
# Details: with tri42_human TRIM42, Q8IWZ5
# Chain of tri42_human TRIM42, Q8IWZ5 (Q8IWZ5 whole entry): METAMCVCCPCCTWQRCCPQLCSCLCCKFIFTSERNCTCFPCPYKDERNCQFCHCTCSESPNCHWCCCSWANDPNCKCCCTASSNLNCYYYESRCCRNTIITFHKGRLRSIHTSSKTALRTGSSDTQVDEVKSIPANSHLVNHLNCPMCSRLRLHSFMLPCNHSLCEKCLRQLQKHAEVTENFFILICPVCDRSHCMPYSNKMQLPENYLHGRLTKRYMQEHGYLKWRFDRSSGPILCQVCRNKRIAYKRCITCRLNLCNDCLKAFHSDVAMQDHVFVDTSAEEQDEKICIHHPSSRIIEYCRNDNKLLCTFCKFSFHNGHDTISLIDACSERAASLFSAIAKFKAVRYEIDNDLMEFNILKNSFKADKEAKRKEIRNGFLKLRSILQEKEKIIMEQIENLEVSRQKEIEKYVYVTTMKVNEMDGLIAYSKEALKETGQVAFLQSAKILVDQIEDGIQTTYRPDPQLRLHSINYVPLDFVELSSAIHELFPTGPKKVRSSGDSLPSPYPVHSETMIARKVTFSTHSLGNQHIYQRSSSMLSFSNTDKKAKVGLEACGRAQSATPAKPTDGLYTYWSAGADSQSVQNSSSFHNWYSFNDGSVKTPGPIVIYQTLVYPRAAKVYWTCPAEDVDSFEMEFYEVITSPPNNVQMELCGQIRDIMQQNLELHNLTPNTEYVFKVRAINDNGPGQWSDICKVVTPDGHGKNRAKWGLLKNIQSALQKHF
row,effect of a mutation on the interaction,Variant
1,with no effect,S54F
2,with no effect,D72V
3,with no effect,P183H

# Variants of: B4
# Details: with stx4_human STX4, Q12846
# Chain of stx4_human STX4, Q12846 (Q12846 whole entry): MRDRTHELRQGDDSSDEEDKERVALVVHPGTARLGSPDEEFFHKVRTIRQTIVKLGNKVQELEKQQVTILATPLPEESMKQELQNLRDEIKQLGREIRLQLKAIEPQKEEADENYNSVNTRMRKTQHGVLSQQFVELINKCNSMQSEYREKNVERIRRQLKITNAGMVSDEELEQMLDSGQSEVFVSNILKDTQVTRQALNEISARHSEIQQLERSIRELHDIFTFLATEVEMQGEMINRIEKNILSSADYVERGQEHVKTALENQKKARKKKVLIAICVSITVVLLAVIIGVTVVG
row,effect of a mutation on the interaction,Variant
1,with no effect,S54F
2,with no effect,D72V
3,with no effect,P183H

# Variants of: B4
# Details: with meox2_human MEOX2, P50222
# Chain of meox2_human MEOX2, P50222 (P50222 whole entry): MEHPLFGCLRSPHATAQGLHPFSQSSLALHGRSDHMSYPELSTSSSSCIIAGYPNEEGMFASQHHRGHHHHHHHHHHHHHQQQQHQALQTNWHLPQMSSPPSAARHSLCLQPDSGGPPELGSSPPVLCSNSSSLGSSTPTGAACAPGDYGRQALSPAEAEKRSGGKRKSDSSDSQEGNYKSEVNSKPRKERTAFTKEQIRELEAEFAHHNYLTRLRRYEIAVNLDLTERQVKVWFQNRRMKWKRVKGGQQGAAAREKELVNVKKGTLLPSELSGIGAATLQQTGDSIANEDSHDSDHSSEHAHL
row,effect of a mutation on the interaction,Variant
1,with no effect,S54F
2,with no effect,D72V
3,with no effect,P183H

# Variants of: B4
# Details: with ccd33_human CCDC33, Q8N5R6
# Chain of ccd33_human CCDC33, Q8N5R6 (Q8N5R6 whole entry): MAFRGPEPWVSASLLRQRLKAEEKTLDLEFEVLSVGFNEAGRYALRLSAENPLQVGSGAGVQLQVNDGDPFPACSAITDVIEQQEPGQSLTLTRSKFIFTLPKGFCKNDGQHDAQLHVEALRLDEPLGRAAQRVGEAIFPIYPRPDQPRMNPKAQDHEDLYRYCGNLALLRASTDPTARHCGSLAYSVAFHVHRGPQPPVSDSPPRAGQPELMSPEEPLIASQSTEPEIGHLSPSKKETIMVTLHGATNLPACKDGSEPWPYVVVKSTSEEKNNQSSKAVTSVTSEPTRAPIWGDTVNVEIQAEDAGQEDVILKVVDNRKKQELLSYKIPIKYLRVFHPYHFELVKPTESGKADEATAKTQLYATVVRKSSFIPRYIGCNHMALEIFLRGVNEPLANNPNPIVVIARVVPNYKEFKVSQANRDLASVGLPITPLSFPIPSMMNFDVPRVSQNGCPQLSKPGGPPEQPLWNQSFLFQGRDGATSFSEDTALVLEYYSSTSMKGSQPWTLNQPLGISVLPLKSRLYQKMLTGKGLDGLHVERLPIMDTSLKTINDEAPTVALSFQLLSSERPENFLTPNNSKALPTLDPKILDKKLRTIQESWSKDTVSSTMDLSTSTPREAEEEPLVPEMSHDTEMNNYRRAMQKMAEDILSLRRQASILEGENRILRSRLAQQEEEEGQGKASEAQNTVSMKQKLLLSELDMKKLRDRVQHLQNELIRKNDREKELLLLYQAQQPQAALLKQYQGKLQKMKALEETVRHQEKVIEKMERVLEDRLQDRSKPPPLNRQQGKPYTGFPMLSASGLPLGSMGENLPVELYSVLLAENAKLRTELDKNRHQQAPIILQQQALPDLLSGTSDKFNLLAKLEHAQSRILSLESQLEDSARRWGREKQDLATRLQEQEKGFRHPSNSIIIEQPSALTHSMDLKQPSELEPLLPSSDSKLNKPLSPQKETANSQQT
row,effect of a mutation on the interaction,Variant
1,with no effect,S54F
2,with no effect,D72V
3,with no effect,P183H
